Laboratory results: patent US20090181444A1, “MODIFIED CARBOHYDRATE PROCESSING ENZYME” (priority 2002, published 2009)

How the values were obtained:
[1] = Hydrolysis of 4-methylumbelliferyl-β-D-xyloside, initial rates; type: biochemical; conditions: 80° C., pH 6.5
Protocol: Parameters were determined by the method of initial rates. Activity was measured in time course assays of the hydrolysis of 4-methylumbelliferyl-β-D-glycosides (β-D-gluco, β-D-galacto, β-D-fuco, β-D-manno, β-D-xylo, β-D-glucurono) at 5-15 concentrations (0.001-1.5 mM) incubated at 80° C. in 50 mM sodium phosphate buffer, pH 6.5. Reactions were terminated at 2, 5, 10, 15 min by the addition of 100 μl of ice cold 1M NazCO3, pH 10 and analyzed (Labsystems Fluoroscan Ascent plate reader, […]). KM and kcat were derived by fitting the initial rates to hyperbolic Michaelis-Menten curves using GraFit 4 (Erithacus Software Ltd, Staines, UK).
Determination of the Michaelis-Menten parameters for the WT and mutant enzymes was performed at pH 6.5 at 80° C. for a broad range of representative, fluorophore-containing 4-methylumbelliferyl glycoside substrates, which allowed activities to be determined with a high degree of sensitivity (Table). Under these optimized assay conditions, the glucoside (Glc), galactoside (Gal) and fucoside (Fuc) substrates were hydrolysed well by SSβG-WT, but the xyloside (Xyl) substrate was hydrolysed relatively poorly (approx. 3% of turnover as determined by kcat compared with β-D-glucoside). […] In all cases the absolute D-stereospecificity and β-stereoselectivity of SSβG was maintained and no activity was detected towards L- or α-glycoside substrates.

[2] = Parallel one-pot glycoside synthesis (transglycosylation to MeOH); type: biochemical; conditions: 50° C., 1:9 MeOH:phosphate buffer pH 6.5
Protocol: Enzyme (WT, […] or E432C, 1 mg) was added to a mixed solution (1 mL) of para-nitrophenyl (pNP) β-D-manno-, galacto-, gluco- and xylo- pyranosides (0.03 mmol of each) in 1:9 MeOH:phosphate buffer (pH 6.5) and incubated at 50° C. for 45 min (WT), 4 h (WT), 8 h (W433C, E432C). After this time the solutions were extracted with EtOAc to remove para-nitrophenol and passed through short Sephadex and Celite:Graphite (1:1) columns to remove protein, pNP-glycoside and remaining para-nitrophenol. Solvent was removed and product mixtures were analysed by ^1H NMR and ESMS. Yields based on donor were calculated from integration of anomeric proton resonances in ^1H NMR (D2O, 500 MHz): α-Gal (δ 5.12, d, […]), α-Glc (δ 5.08, d, 3.8 Hz), α-Xyl (δ 5.04, d, J=3.4 Hz), α-Man (δ 5.03, d, J=1.8 Hz), β-Man (δ 4.75, s), β-Glc (δ 4.49, d, J=8.0 Hz), P-Gal (δ 4.45, d, 7.9 Hz), Me-β-Man (δ 4.44, s), β-Xyl (δ 4.42, d, J=7.8 Hz), Me-β-Glc (δ 4.23, d, J 8.1 Hz), Me-β-Xyl (δ 4.18, d, J=7.8 Hz), Me-β-Gal (δ 4.17, d, J=8.0 Hz).
Scheme 1: Parallel glycoside syntheses using SSβG-WT, -E432C and -W433C as catalysts. […] Such balanced libraries are not produced by SSβG-WT even under varying reaction times.

B1: WT: Wild type β-glycosidase from Sulfolobus solfataricus (SEQ ID NO: 2), recombinant with N-terminal His6-tag (protein, listed as Sulfolobus solfataricus)
chain: MYSFPNSFRFGWSQAGFQSEMGTPGSEDPNTDWYKWVHDPENMAAGLVSGDLPENGPGYWGNYKTFHDNAQKMGLKIARLNVEWSRIFPNPLPRPQNFDESKQDVTEVEINENELKRLDEYANKDALNHYREIFKDLKSRGLYFILNMYHWPLPLWLHDPIRVRRGDFTGPSGWLSTRTVYEFARFSAYIAWKFDDLVDEYSTMNEPNVVGGLGYVGVKSGFPPGYLSFELSRRHMYNIIQAHARAYDGIKSVSKKPVGIIYANSSFQPLTDKDMEAVEMAENDNRWWFFDAIIRGEITRGNEKIVRDDLKGRLDWIGVNYYTRTVVKRTEKGYVSLGGYGHGCERNSVSLAGLPTSDFGWEFFPEGLYDVLTKYWNRYHLYMYVTENGIADDADYQRPYYLVSHVYQVHRAINSGADVRGYLHWSLADNYEWASGFSMRFGLLKVDYNTKRLYWRPSALVYREIATNGAITDEIEHLNSVPPVKPLRH
modifications: N-terminal His6 tag
For B1, the Km ([1]; 4-MUXyl) was 130 ± 30 µM, the kcat ([1]; 4-MUXyl) was 3.8 ± 0.3 s⁻¹ and the “turnover (kcat) towards xyloside compared with β-D-glucoside” value [1] was “approx. 3%”. The “Yield of Products, product 1 (β-glycoside of Glc)” value ([2]; 45 min) was 40%, the “Yield of Products, product 2 (β-glycoside of Gal)” value ([2]; 45 min) was 33% and the “Yield of Products, product 3 (β-glycoside of Man)” value ([2]; 45 min) was 2%. For the same molecule, the “Yield of Products, product 4 (β-glycoside of Xyl)” value ([2]; 45 min) was 3%, the “Yield of Products, product 5” value ([2]; 45 min) was 14% and the “Yield of Products, product 6” value ([2]; 45 min) was 8%. The “Yield of Products, product 3 (β-glycoside of Man)” value ([2]; 4 h) was 8%, the “Yield of Products, product 4 (β-glycoside of Xyl)” value ([2]; 4 h) was 20% and the “Yield of Products, product 5” value ([2]; 4 h) was 33%. For the same molecule, the “Yield of Products, product 6” value ([2]; 4 h) was 30%, the “Yield of Products, product 7” value ([2]; 4 h) was 4% and the “Yield of Products, product 8” value ([2]; 4 h) was 5%.
